Earlier results in article PMC6705211.
Like-named read-outs stand apart in the source and are kept apart here. Each block holds one substance with its values, some of them ahead of it.

Experiments:
H3K9me3 [1] = target: H3K9me3 (UniProt P68431)
H3K9me3 [2] = target: H3K9me3 (UniProt P68431); remark: listed apart in the source
H3K9me3 [3] = target: H3K9me3 (UniProt P68431); remark: listed apart in the source
H3K9me3 [4] = target: H3K9me3 (UniProt P68431); remark: listed apart in the source

HP1β, sequence (P83916 whole entry): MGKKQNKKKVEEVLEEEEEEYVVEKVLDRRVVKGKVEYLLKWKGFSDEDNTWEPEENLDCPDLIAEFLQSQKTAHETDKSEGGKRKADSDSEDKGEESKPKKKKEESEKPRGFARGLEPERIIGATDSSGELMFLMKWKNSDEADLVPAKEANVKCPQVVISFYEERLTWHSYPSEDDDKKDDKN
HP1γ, sequence (Q13185 2-183): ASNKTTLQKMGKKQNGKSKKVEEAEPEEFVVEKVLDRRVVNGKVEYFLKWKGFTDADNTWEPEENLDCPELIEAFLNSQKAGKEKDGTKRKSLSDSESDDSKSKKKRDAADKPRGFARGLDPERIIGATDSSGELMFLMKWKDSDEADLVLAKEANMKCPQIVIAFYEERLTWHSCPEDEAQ
HP1α chromodomain, sequence (P45973 20-78): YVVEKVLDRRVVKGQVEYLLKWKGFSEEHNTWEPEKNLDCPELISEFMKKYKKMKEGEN
HP1a chromodomain, sequence (P05205 24-82): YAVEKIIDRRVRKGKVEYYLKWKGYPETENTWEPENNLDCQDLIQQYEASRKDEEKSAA

Kd (H3K9me3 [1]): 4 µM
Substance: HP1a chromodomain (from UniProt P05205)

Kd (H3K9me3 [2]): 13 µM
Substance: HP1α chromodomain (from UniProt P45973)

Kd (H3K9me3 [3]): 3 µM
Substance: HP1β (from UniProt P83916)

Kd (H3K9me3 [4]): 7 µM
Substance: HP1γ (from UniProt Q13185)
